T1: AAV8 virus-like particle (VLP) (adeno-associated virus 8)
T1 construct: VLP self-assembled from VP1, VP2 and VP3 expressed in 293T cells; coated on ELISA plates; also called VLP of AAV8
T1 VP1: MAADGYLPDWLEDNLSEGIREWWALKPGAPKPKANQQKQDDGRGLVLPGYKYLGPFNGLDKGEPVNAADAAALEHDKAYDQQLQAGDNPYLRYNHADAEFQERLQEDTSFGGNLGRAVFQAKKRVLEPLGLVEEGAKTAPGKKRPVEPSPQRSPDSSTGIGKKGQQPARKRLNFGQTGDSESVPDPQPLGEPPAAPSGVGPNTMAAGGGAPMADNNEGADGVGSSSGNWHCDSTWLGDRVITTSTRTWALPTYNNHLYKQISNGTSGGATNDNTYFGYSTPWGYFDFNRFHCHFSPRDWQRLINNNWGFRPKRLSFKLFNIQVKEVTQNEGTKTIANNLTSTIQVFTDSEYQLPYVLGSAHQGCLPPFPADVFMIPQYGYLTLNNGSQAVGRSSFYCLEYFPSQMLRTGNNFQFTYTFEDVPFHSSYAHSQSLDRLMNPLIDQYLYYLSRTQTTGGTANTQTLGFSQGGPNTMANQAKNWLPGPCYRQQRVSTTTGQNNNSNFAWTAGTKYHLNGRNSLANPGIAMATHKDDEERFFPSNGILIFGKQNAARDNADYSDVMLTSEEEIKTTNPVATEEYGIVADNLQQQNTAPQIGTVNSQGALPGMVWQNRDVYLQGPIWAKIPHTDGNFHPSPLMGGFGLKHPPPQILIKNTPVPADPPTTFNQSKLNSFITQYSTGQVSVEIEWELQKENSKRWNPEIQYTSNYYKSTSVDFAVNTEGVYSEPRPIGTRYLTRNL

T2: recombinant rh.1-type AAV virus-like particles (AAVrh.1 VLP) (adeno-associated virus rh.1 (isolated …))
T2 construct: The immunogen; VLP self-assembled from VP1, VP2 and VP3 expressed in 293T cells; coated on ELISA plates; also called rh.1-serotype AAV
T2 chain 1: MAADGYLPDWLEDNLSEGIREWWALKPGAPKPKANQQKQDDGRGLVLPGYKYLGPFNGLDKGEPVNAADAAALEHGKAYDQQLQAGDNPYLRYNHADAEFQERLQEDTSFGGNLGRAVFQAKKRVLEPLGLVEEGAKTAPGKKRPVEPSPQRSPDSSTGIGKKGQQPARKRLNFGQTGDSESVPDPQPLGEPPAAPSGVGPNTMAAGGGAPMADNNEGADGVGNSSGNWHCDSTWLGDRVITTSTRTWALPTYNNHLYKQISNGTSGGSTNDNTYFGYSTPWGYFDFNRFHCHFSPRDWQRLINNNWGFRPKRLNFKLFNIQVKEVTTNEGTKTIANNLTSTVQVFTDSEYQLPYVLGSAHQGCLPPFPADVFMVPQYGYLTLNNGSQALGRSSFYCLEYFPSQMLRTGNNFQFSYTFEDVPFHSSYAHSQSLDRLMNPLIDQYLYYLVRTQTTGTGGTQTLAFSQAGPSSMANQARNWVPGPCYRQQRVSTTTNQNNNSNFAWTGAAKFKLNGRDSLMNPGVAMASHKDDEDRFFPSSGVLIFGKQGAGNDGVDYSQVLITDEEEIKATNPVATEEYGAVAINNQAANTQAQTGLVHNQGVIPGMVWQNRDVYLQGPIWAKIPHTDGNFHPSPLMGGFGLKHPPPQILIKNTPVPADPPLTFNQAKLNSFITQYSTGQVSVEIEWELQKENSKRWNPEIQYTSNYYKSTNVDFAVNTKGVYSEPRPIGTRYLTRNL
T2 chain 2: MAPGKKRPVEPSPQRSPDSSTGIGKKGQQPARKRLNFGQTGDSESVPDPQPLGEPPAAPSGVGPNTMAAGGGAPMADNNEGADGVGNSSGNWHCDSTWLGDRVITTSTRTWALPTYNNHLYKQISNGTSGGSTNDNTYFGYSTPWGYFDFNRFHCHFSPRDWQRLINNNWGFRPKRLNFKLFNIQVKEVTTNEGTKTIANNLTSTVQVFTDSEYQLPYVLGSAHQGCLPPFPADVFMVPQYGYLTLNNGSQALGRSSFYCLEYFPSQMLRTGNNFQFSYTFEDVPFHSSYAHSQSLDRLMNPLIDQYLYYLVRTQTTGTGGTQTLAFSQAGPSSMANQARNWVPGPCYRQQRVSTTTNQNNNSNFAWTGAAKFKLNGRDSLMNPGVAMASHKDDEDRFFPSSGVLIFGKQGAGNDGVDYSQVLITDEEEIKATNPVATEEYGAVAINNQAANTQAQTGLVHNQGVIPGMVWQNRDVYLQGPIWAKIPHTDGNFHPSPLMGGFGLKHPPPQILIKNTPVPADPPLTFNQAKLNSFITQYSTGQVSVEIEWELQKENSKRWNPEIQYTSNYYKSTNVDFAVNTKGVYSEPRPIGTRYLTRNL
T2 chain 3: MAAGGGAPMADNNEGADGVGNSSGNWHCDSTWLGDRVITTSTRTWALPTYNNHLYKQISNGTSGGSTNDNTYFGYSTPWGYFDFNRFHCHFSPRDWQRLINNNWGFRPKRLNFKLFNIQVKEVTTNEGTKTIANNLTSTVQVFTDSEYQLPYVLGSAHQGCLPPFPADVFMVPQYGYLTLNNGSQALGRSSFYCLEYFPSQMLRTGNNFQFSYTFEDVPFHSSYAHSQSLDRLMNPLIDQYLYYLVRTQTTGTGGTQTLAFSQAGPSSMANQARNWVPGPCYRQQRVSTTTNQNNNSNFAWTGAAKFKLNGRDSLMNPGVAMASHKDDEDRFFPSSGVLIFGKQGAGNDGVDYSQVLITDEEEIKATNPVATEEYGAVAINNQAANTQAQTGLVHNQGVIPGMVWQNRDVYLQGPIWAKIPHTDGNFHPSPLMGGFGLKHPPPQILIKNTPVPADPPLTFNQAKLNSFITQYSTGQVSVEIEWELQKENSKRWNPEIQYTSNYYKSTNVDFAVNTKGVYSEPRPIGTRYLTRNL

B1: 5G4-1 monoclonal antibody (antibody, V domains shown)
VH: QSVKESEGGLFKPADTLSLTCTVSGFSLNNNDMSWVRQAPGNGLEYIGVMSSGGRLYAATWAKSRFTITRNTNLGTVTLKLTSLTAADTATYFCARGSPSSNRGIDIWGPGTLVTVSS
VL: LTQTPSSVSAPVGGTVSINCQSDKSVYADNYLSWYQQTPGQPPKLLIYKASTLASGIPSRFKGSGSGTQFTLAISDVQCDDAATYYCAGGYSGNSDNGFGGGTEVVVR
notes: Rabbit monoclonal antibody, made recombinantly in ExpiCHO-S cells, purified on protein A as IgG and detected with anti-rabbit IgG (Fc-specific); also called clone 5G4-1
B2: 24F7-1 monoclonal antibody (antibody, V domains shown)
VH: QSLRESEGGLFKPADTLTLTCTVSGFSITAYNVGWVRQAPGKGLEWIGVIDISGATFYATWAKSRSTITRDTSLNTVTLKMTSLTAADTATYFCTRDPAFIWGPGTLVTVSS
VL: DVVMTQTPASVEAAVGGTVTIKCQASQSVSSYLAWYQQKPGQPPKLLIYRASTLASGVPSRFKGSGSGTEFTLTISDLECADAATYYCQSYVYSNVLTYFNAFGGGTGVVVK
notes: Rabbit monoclonal antibody, made recombinantly in ExpiCHO-S cells, purified on protein A as IgG and detected with anti-rabbit IgG (Fc-specific); also called clone 24F7-1

Experiments:
Assay in all cases: indirect ELISA, VLP coated at 1 ug/mL, antibody in 3-fold dilutions from 1 ug/mL
[1] = molecular target: T1, AAV8 virus-like particle (VLP)
[2] = molecular target: T2, recombinant rh.1-type AAV virus-like …
[3] = molecular target: T3, AAV6 virus-like particle (VLP) (adeno-associated virus 6)
T3 construct: VLP self-assembled from VP1, VP2 and VP3 expressed in 293T cells; coated on ELISA plates; also called VLP of AAV6

[4] = molecular target: T4, AAV9 virus-like particle (VLP) (adeno-associated virus 9)
T4 construct: VLP self-assembled from VP1, VP2 and VP3 expressed in 293T cells; coated on ELISA plates; also called VLP of AAV9

[5] = molecular target: T5, AAV2 virus-like particle (VLP) (adeno-associated virus 2, UniProt P03135 1-735; P03135 1-598; P03135 1-533)
T5 construct: VLP self-assembled from VP1, VP2 and VP3 expressed in 293T cells; coated on ELISA plates; also called VLP of AAV2

[6] = molecular target: T6, AAV1 virus-like particle (VLP) (adeno-associated virus 1)
T6 construct: VLP self-assembled from VP1, VP2 and VP3 expressed in 293T cells; coated on ELISA plates; also called VLP of AAV1

[7] = molecular target: T7, AAV5 virus-like particle (VLP) (adeno-associated virus 5)
T7 construct: VLP self-assembled from VP1, VP2 and VP3 expressed in 293T cells; coated on ELISA plates; also called VLP of AAV5

[8] = molecular target: T8, AAVDJ virus-like particle (VLP) (adeno-associated virus DJ)
T8 construct: VLP self-assembled from VP1, VP2 and VP3 expressed in 293T cells; coated on ELISA plates; also called VLP of AAVDJ

| Binder | EC50 [1] [ng/mL] | EC50 [2] [ng/mL] | EC50 [3] [ng/mL] | EC50 [4] [ng/mL] | EC50 [5] [ng/mL] | EC50 [6] [ng/mL] | EC50 [7] [ng/mL] | EC50 [8] [ng/mL] |
| --- | --- | --- | --- | --- | --- | --- | --- | --- |
| B1 | 1 | 0.51 | 0.64 | 0.64 | 0.94 | 1.03 | 1.16 | 1.12 |
| B2 | – | 0.93 | 0.61 | – | 0.51 | 0.79 | – | 0.5 |

Source: US20260217795A1 (NANJING GENSCRIPT BIOTECH, published 2026)
